Data as given in patent US20070202045A1.
Bridges are numbered along the chain shown (N, C = ends). Where no end group is shown, it is not given here.

Key:
mouse albumin (mouse) [1] = biological target: mouse albumin (mouse) (UniProt P07724); test: solution binding ELISA; end of the range tied by Table 14 (41 nM)
rabbit albumin (rabbit) = rabbit albumin (rabbit) (UniProt P49065); test: direct binding ELISA, immobilized albumin
rat albumin (rat) [2] = biological target: rat albumin (rat) (UniProt P02770); test: direct binding ELISA, immobilized albumin
mouse albumin (mouse) [3] = biological target: mouse albumin (mouse) (UniProt P07724); test: direct binding ELISA, immobilized albumin
rat albumin (rat) [4] = biological target: rat albumin (rat) (UniProt P02770); test: Kd for albumin as listed with the PK data (solution binding ELISA)
rat albumin (rat) [5] = biological target: rat albumin (rat) (UniProt P02770); test: solution binding ELISA (Scatchard)
mouse albumin (mouse) [6] = biological target: mouse albumin (mouse) (UniProt P07724); test: solution binding ELISA (Scatchard)

Sequence of mouse albumin (mouse) (P07724 25-608 limits assumed): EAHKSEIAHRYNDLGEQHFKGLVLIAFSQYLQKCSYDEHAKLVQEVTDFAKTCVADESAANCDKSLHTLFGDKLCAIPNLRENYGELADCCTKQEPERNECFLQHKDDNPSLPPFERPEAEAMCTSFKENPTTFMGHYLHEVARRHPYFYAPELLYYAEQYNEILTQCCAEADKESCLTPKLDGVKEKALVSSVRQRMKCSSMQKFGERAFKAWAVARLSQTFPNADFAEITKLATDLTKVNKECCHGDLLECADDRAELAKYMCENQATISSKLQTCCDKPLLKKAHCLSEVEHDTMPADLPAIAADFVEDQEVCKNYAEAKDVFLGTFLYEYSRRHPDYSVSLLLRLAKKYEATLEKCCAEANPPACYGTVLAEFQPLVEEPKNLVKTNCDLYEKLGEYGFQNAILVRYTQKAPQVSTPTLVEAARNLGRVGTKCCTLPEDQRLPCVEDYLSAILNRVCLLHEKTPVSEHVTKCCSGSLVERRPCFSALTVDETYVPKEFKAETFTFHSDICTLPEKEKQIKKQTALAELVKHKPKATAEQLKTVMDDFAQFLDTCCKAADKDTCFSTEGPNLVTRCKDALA
Sequence of rat albumin (rat) (P02770 25-608 limits assumed): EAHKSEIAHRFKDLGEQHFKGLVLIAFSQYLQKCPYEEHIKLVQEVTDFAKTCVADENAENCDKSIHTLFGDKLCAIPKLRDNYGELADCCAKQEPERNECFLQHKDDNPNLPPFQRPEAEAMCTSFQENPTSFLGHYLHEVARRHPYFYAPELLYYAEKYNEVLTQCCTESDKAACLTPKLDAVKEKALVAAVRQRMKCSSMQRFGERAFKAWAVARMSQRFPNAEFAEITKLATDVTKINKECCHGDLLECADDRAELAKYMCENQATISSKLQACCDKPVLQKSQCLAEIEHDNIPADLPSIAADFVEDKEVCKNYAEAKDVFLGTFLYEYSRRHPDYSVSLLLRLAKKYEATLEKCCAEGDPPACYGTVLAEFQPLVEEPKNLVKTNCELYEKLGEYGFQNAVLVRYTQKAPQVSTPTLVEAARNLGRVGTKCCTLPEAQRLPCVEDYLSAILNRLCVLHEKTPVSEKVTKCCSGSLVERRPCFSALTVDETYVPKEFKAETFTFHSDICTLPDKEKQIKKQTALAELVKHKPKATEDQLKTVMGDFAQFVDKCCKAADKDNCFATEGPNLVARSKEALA
Sequence of rabbit albumin (rabbit) (P49065 25-608 limits assumed): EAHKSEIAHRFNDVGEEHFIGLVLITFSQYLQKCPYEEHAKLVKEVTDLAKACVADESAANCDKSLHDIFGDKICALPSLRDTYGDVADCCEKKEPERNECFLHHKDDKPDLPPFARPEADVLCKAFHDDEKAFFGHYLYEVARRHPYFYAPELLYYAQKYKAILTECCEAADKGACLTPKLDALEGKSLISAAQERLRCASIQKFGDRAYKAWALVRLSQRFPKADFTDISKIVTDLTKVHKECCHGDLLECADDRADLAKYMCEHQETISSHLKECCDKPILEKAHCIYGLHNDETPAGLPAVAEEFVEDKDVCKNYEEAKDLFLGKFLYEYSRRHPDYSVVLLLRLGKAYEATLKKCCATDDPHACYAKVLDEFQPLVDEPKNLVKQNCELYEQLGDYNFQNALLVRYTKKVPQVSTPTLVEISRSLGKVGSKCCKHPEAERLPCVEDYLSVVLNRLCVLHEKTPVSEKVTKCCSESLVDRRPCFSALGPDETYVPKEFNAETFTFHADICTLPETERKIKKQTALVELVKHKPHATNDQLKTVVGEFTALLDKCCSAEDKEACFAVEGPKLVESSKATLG

Binder | Kd (mouse albumin (mouse) [1]) | EC50 (rabbit albumin (rabbit)) | EC50 (rat albumin (rat) [2]) | EC50 (mouse albumin (mouse) [3]) | Kd (rat albumin (rat) [4]) | Kd (rat albumin (rat) [5]) | Kd (mouse albumin (mouse) [6])
{Fab4D5 heavy chain (…CDKTH)}-IEDICLPRWGCLWE (Fab, part only; not given: carrier Fab4D5 heavy and light chains, not shown: another chain or arm of the molecule; large carriers, disulfide 5-11) [AB.Fab4D5-H8] | 40 nM | 500 nM | – | – | – | – | –
{Fab4D5 heavy chain (…CDKTH)}-DICLPRWGCL (Fab, part only; not given: Carrier Fab (trastuzumab), not shown: another chain or arm of the molecule; large carriers, disulfide 3-9) [AB.Fab4D5-H11] | – | > 2000 nM | > 1000 nM | > 2000 nM | 2500 nM | 2430 nM | 1250 nM
{Fab4D5 heavy chain (…CDKTH)}-DICLPRWGCLW (Fab, part only; not given: carrier Fab4D5 heavy and light chains, not shown: another chain or arm of the molecule; large carriers, disulfide 3-9) [AB.Fab4D5-H10] | – | > 2000 nM | 8 nM | – | – | – | –
{Fab4D5 heavy chain (…CDKTH)}-DICLPRWGCLWED (Fab, part only; not given: carrier Fab4D5 heavy and light chains, not shown: another chain or arm of the molecule; large carriers, disulfide 3-9) [AB.Fab4D5-H4] | – | 500 nM | – | – | – | – | –
